Measurements: publication PMC4805542

Test system: ZF6-DB (synthetic construct)
Assay: EMSA
Conditions: 1.5 uM protein, DNA titrated 145-250 nM; apparent Kd, Scatchard; 6.25 mM MgCl2; 25 mM Hepes pH 7.9, 50 mM KCl, 6.25 mM MgCl2, 1% Nonidet P-40, 5% glycerol; 15 min on ice; 5% PAGE in 0.5x TBE at 4 C

Which Kd does the source give for hRHO 65 bp duplex oligonucleotide here?
The Kd was 41.9 nM.
